Laboratory results as given in publication PMC10586629, “Single B cell transcriptomics identifies multiple isotypes of broadly neutralizing antibodies against flaviviruses” (PLOS Pathogens, 2023).

Biological target: T1, wild-type DENV2 16681 prM/E expressed in HEK-293T cells (Dengue virus 2, strain 16681, UniProt P29990)
T1 construct: also called WT DENV2 E protein; wild-type prM/E
Test: flow cytometry on cells
Settings: one partner purified

B1: F25.S02 IgG1 (antibody, V domains shown)
VH: QVQLVQSGAEVKKPGSSAKVSCKASGGTFSSYAISWVRQAPGQGLEWMGSIMPIFGTVNYAQKFQGRVTITADESTSTAYMELSRLRSEDTAVYFCARGWGGNYRSADLWIYFDLWGQGTLVTVSS
VL: QSALTQPRSVSGSPGQSVTISCTGTSSDVGGYKYVSWYQQHPGKAPKLMIYDVTKRPSGVPDRFSGSKSGNTASLTISGLQADDEADYYCCSYAGSYTHVVFGGGTKLTVL
  binding result: binds
